Reference: US6191256A, “Recombinant factor VIII binding peptides” (Bayer Corporation, priority 1998, dated 2001)
Values belong to the substance of their own block, whether it stands above or below them.

How the values were obtained:
rFVIII [1] = target: T1, rFVIII (Homo sapiens, UniProt P00451); assay: confirmatory binding assay in filtration plate format using 14C-rFVIII; conditions: for 0.5M CaCl2 % total / 2% acetic acid % total / 2% acetic acid dpm / 0.5M CaCl2 dpm: 5 mg beads; for 0.5M CaCl2 dpm: 5° C.; for beads % total / beads dpm: remaining on beads after washes
T1 sequence (P00451 20-2351): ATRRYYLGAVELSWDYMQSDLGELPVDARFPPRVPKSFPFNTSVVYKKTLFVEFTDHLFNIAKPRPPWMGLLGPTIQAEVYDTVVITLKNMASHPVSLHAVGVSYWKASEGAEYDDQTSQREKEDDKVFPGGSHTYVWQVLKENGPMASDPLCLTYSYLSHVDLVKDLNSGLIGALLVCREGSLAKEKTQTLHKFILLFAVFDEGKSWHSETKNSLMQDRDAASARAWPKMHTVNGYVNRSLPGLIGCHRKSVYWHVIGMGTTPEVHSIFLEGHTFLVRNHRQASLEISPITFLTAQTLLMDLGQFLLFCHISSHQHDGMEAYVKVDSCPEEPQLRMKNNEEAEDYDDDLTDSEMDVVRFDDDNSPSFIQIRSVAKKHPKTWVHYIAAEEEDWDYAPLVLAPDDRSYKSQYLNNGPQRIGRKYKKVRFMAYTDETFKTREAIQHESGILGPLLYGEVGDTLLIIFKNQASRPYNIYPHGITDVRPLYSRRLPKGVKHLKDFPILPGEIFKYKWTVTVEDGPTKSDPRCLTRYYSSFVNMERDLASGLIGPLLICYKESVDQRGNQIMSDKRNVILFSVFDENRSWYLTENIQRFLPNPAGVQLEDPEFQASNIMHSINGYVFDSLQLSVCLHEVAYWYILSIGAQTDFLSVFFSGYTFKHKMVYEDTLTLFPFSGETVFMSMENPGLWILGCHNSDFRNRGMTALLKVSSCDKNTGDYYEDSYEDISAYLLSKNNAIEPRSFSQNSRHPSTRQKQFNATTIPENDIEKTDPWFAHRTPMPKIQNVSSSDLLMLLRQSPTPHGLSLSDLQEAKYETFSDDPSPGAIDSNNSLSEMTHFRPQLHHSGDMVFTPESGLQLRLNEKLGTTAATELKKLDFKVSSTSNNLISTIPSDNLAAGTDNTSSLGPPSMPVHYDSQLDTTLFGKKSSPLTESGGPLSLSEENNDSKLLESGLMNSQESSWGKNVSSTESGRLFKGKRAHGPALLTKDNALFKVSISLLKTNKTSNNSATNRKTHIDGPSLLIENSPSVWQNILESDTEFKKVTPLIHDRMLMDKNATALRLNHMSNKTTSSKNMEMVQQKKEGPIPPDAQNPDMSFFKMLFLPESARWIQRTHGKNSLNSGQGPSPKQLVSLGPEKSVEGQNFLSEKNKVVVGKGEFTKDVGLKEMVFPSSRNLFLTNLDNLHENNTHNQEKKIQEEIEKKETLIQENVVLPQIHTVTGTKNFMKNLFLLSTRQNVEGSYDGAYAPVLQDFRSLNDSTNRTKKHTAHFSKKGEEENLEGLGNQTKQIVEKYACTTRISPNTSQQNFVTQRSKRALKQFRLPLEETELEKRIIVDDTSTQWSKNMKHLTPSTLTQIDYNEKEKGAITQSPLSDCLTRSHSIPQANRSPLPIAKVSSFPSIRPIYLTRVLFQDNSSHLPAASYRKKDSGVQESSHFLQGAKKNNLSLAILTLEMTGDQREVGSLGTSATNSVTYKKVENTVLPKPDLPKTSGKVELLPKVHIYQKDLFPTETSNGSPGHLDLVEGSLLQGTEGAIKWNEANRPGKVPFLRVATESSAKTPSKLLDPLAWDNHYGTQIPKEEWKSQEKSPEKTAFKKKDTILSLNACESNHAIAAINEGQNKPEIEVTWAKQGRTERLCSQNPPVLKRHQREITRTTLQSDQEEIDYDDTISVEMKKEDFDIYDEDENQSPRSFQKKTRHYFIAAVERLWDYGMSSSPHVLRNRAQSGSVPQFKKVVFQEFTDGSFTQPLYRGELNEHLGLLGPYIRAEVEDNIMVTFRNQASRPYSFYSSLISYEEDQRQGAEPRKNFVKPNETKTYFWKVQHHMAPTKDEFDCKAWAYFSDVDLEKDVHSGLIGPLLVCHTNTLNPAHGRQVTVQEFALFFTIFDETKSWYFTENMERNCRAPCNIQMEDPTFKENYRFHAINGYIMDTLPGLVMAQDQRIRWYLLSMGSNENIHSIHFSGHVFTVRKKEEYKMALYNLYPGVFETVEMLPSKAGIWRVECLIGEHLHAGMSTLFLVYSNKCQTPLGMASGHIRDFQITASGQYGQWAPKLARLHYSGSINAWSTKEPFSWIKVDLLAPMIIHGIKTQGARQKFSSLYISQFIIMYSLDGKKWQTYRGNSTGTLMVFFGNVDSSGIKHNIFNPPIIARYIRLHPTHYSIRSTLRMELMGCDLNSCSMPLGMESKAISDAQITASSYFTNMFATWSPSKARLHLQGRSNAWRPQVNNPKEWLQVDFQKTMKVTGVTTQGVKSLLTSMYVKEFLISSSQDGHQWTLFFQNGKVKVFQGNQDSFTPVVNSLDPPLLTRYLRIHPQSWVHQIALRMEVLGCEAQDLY
T1 sequence (P00451 1668-2351 limits assumed): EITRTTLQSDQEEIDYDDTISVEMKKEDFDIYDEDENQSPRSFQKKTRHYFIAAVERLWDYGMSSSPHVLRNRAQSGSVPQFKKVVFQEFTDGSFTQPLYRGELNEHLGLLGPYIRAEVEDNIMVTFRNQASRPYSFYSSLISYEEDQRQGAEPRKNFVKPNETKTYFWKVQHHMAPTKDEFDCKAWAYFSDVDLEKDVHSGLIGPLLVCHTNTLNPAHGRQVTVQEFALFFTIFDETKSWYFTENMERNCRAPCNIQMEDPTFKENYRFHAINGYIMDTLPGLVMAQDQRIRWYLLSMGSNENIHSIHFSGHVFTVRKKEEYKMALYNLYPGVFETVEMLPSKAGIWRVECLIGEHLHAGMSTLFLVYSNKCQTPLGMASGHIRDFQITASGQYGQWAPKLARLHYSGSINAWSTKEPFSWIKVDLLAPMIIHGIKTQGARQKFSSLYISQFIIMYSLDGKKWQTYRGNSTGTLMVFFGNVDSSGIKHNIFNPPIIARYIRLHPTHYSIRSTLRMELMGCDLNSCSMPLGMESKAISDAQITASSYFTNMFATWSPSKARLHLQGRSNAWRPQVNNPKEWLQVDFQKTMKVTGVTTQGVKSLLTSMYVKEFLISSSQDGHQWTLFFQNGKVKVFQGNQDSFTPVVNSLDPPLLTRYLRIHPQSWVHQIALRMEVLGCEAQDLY
Protocol: Confirmatory binding assays were performed in a filtration plate format using individual peptide sequences synthesized directly onto the TOYOPEARL AF amino 650 M resin, at a final substitution density of 0.1 mmole/g resin. A slurry of each individual peptide sequence was prepared using deionized water. A 100 μL volume of beads (corresponding to 5 mg) was loaded into each well of the filtration plate (MULTISCREEN Assay System, Millipore, Bedford, Mass.), in triplicate for each peptide sequence. Beads were washed with 20% ethanol and incubated overnight with equilibration buffer (20 mM imidazole, 10 mM
CaCl2, 0.105 M NaCl, pH 6.9). A 100 μL aliquot of ^14 C-rFVIII diluted in neat PPF to a final concentration of 20-30 nM was loaded into each well and incubated for 1 hour at 5° C. Filtrate (unbound ^14 C-rFVIII) was collected into a microtiter plate and transferred to liquid scintillation vials for dpm counting. Beads were washed sequentially with: 100 μL of equilibration buffer for 15 minutes, 200 μL of 0.5 M CaCl2 (in equilibration buffer), 200 μL of 1.0 M CaCl2 (in equilibration buffer), and 200 uL of 2% by volume glacial acetic acid in water, for 1 hour each at 5° C. Scintillation counting on the unbound ^14 C-rFVIII (plus equilibration buffer wash), salt and acid washes, as well as on the beads was then performed and the overall mass balance calculated.
Beads presenting the appropriate peptide sequence on the surface were placed in the filtration plate wells and incubated sequentially with equilibration buffer, ^14 C-rFVIII in PPF, equilibration buffer, 0.5 M CaCl2 wash, 1.0 M CaCl2 wash and 2% acetic acid wash. After each incubation, filtrate was collected in microtiter plates, and dpm counted on each
In Table 3, the ^14 C-rFVIII was loaded at 20 nM (in PPF) and the radiolabeling yield was at 3.0×10^15 dpm/mole. In Table 4, the ^14 C-rFVIII was loaded at 30 nM (in PPF) and the radiolabeling yield was at 5.0×10^15 dpm/mole.

rFVIII [2] = target: T1, rFVIII; assay: rFVIII activity recovery from peptide columns by chromogenic substrate assay (COATEST); format: biochemical; conditions: for 0.5M CaCl2 % total: activity recovery; for Flow through IU: rFVIII activity in fraction; for Activity results % total: Table 9, 0.5M CaCl2 fraction
Protocol: (§1) Immunoassay on rFVIII using a sandwich capture ELISA for the light chain and activity assay using a chromogenic substrate (COATEST Factor VIII kit from diaPharma, Franklin, Ohio) were performed on a BIOMEK® automated liquid handling system from Beckman Instruments (Brea, Calif.). The monoclonal antibody for rFVIII light chain (known as C7F7), the ELISA assay standard (lot A70K019), and the control for the activity assay (lot A70A001 @ 140 IU/mL) were from the Bayer Corporation (Berkeley, Calif.). The standard for the activity assay was at 11.2 IU/mL (Bayer, Clayton, N.C.), calibrated against the MEGA 1 standard, which is a working standard used by American manufacturers for measuring factor VIII activity (21).
(§2) Additional confirmatory binding assay and performance of the discovered binding peptides in terms of total rFVIII and activity recovery was performed in a column chromatographic format on a microbore HPLC. The resins were packed into 0.4×5 cm columns (Thomson, Springfield, Va.) and tested on the MICHROM HPLC system (Michrom BioResources, Auburn, Calif.). The elution program for the trials utilized the following method. The column was pre-equilibrated with equilibration buffer (as above). A 1 mL aliquot of 1:10 PPF followed by 1 mL of rFVIII (10,000 ng) in 1:10 PPF were injected and allowed sufficient time to flow through the column using equilibration buffer. The column was then washed with step elutions of 0.5 M and 1.0 M CaCl2 in equilibration buffer. The column was exposed to equilibration buffer. Remaining protein was eluted with 2% by volume glacial acetic acid in water. Columns were kept at 5° C. during the chromatographic runs. For each 1 mL injection (equilibration buffer, 1:10 PPF and 10,000 ng rFVIII in 1:10 PPF), the chromatographic cycle was run for 45 minutes (injection, flow through, 0.5 M CaCl2, 1.0 M CaCl2, equilibration buffer, 2% acetic acid, equilibration buffer).
(§3) A Gilson FC204 fraction collector at the HPLC outlet collected individual eluates for further analysis. Each collection tube had 100 μL hSA added to it to stabilize the rFVIII. Fractions collected from the 2% acetic acid eluates were neutralized with 2 M Tris, pH 10.5 to bring the pH to neutrality. The fractions were analyzed for total protein by the integration of the absorbance at 280 nm, for rFVIII by immunoassay (sandwich capture ELISA), and for rFVIII activity by a chromogenic substrate assay.
Tables 7 and 8 list the sequences for which activity recovery was determined by a chromogenic substrate assay (COASTEST kit, diaPharma, Franklin, Ohio). Chromatographc conditions are the same as described above for the results from Tables 5 and 6. It can be

rFVIII [3] = target: T1, rFVIII; assay: column format binding assay, rFVIII mass per fraction by sandwich capture ELISA for the light chain; conditions: for Flow through ng: 10,000 ng rFVIII in 1:10 PPF injected, 5° C.; for ELISA results % total: Table 9, 0.5M CaCl2 fraction
Protocol: as §1, §2, §3
Tables 5 and 6 present the results from the additional confirmatory binding assays using the column format. The chromatography method was run by injecting the samples at a flow rate of 865 μL/min (413 cm/hr). In order to provide a 10 minute residence time of sample in the column the flow was decreased to 17 μL/min (10 cm/hr) upon injection.
Following the incubation, the flow was set at 865 μL/min (413 cm/hr) for the step clutions of 0.5 M CaCl2, 1.0 M CaCl2, and 2% acetic acid. Results are expressed in terms of the total mass of rFVIII in each fraction, as determined by the sandwich capture ELISA assay for the rFVIII light chain. […] A control using a non-binding peptide sequence (IGF) is also shown for comparison--in this case, 95% of the rFVIII loaded to the column was collected in the flow through fraction. Additional controls with no

[4] = Table 4, 14C-rFVIII 30 nM in PPF
[5] = Table 4, 14C-rFVIII 30 nM in PPF, 5.0 × 10^15 dpm/mole
[6] = Table 3, 14C-rFVIII 20 nM in PPF

Total dpm (rFVIII [1]; Table 4, 14C-rFVIII 30 nM): 3884 dpm
0.5M CaCl2 % total (rFVIII [1]; [4]): 12%
2% acetic acid % total (rFVIII [1]; [4]): 54%
2% acetic acid dpm (rFVIII [1]; [4]): 2099 dpm
0.5M CaCl2 dpm (rFVIII [1]; [5]): 485 dpm
beads % total (rFVIII [1]; Table 4, 14C-rFVIII 30 nM): 33%
beads dpm (rFVIII [1]; Table 4, 14C-rFVIII 30 nM): 1300 dpm
0.5M CaCl2 IU (rFVIII [2]; Table 8): 0.4 IU
2% acetic acid % total (rFVIII [2]; Table 8): 45%
2% acetic acid IU (rFVIII [2]; Table 8): 3.5 IU
Flow through % total (rFVIII [2]; Table 8): 0%
Total IU (rFVIII [2]; Table 8): 7.8 IU
0.5M CaCl2 % total (rFVIII [2]; Table 8): 4%
Flow through IU (rFVIII [2]; Table 8): 0.0 IU
0.5M CaCl2 ng (rFVIII [3]; Table 6): 36 ng
0.5M CaCl2 % total (rFVIII [3]; Table 6): 1%
2% acetic acid % total (rFVIII [3]; Table 6): 95%
2% acetic acid ng (rFVIII [3]; Table 6): 4719 ng
Flow through % total (rFVIII [3]; Table 6): 0%
Total ng (rFVIII [3]; Table 6): 4966 ng
Flow through ng (rFVIII [3]; Table 6): 0 ng
Substance: 20 (WHHHRG) [compound 20]

Total dpm (rFVIII [1]; Table 4, 14C-rFVIII 30 nM): 2208 dpm
0.5M CaCl2 % total (rFVIII [1]; [4]): 48%
2% acetic acid % total (rFVIII [1]; [4]): 23%
2% acetic acid dpm (rFVIII [1]; [4]): 518 dpm
0.5M CaCl2 dpm (rFVIII [1]; [5]): 1049 dpm
beads % total (rFVIII [1]; Table 4, 14C-rFVIII 30 nM): 29%
beads dpm (rFVIII [1]; Table 4, 14C-rFVIII 30 nM): 641 dpm
0.5M CaCl2 IU (rFVIII [2]; Table 8): 54.4 IU
2% acetic acid % total (rFVIII [2]; Table 8): 0%
2% acetic acid IU (rFVIII [2]; Table 8): 0.0 IU
Flow through % total (rFVIII [2]; Table 8): 4%
Total IU (rFVIII [2]; Table 8): 60.4 IU
0.5M CaCl2 % total (rFVIII [2]; Table 8): 90%
Flow through IU (rFVIII [2]; Table 8): 2.5 IU
Activity results % total (rFVIII [2]): 90%
0.5M CaCl2 ng (rFVIII [3]; Table 6): 7481 ng
0.5M CaCl2 % total (rFVIII [3]; Table 6): 78%
2% acetic acid % total (rFVIII [3]; Table 6): 11%
2% acetic acid ng (rFVIII [3]; Table 6): 1069 ng
Flow through % total (rFVIII [3]; Table 6): 7%
Total ng (rFVIII [3]; Table 6): 9641 ng
Flow through ng (rFVIII [3]; Table 6): 639 ng
ELISA results % total (rFVIII [3]): 78%
Substance: 11 (NAIFQW) [compound 11]

Total dpm (rFVIII [1]; Table 4, 14C-rFVIII 30 nM): 4116 dpm
0.5M CaCl2 % total (rFVIII [1]; [4]): 16%
2% acetic acid % total (rFVIII [1]; [4]): 19%
2% acetic acid dpm (rFVIII [1]; [4]): 783 dpm
0.5M CaCl2 dpm (rFVIII [1]; [5]): 675 dpm
beads % total (rFVIII [1]; Table 4, 14C-rFVIII 30 nM): 65%
beads dpm (rFVIII [1]; Table 4, 14C-rFVIII 30 nM): 2658 dpm
binding of rFVIII in words (rFVIII [1]; plate format): tight binding
0.5M CaCl2 IU (rFVIII [2]; Table 8): 0.0 IU
2% acetic acid % total (rFVIII [2]; Table 8): 100%
2% acetic acid IU (rFVIII [2]; Table 8): 2.3 IU
Flow through % total (rFVIII [2]; Table 8): 0%
Total IU (rFVIII [2]; Table 8): 2.3 IU
0.5M CaCl2 % total (rFVIII [2]; Table 8): 0%
Flow through IU (rFVIII [2]; Table 8): 0.0 IU
0.5M CaCl2 ng (rFVIII [3]; Table 6): 4 ng
0.5M CaCl2 % total (rFVIII [3]; Table 6): 0%
2% acetic acid % total (rFVIII [3]; Table 6): 100%
2% acetic acid ng (rFVIII [3]; Table 6): 4500 ng
Flow through % total (rFVIII [3]; Table 6): 0%
Total ng (rFVIII [3]; Table 6): 4504 ng
Flow through ng (rFVIII [3]; Table 6): 0 ng
Substance: 22 (FVFLVR) [compound 22]

Total dpm (rFVIII [1]; Table 3, 14C-rFVIII 20 nM): 4091 dpm
0.5M CaCl2 % total (rFVIII [1]; [6]): 86%
2% acetic acid % total (rFVIII [1]; [6]): 10%
2% acetic acid dpm (rFVIII [1]; [6]): 430 dpm
0.5M CaCl2 dpm (rFVIII [1]; Table 3, 14C-rFVIII 20 nM in PPF, 3.0 × 10^15 DPM/mole): 3519 dpm
beads % total (rFVIII [1]; Table 3, 14C-rFVIII 20 nM): 3%
beads dpm (rFVIII [1]; Table 3, 14C-rFVIII 20 nM): 143 dpm
0.5M CaCl2 IU (rFVIII [2]; Table 7): 36.3 IU
2% acetic acid % total (rFVIII [2]; Table 7): 3%
2% acetic acid IU (rFVIII [2]; Table 7): 1.2 IU
Flow through % total (rFVIII [2]; Table 7): 0%
Total IU (rFVIII [2]; Table 7): 37.8 IU
0.5M CaCl2 % total (rFVIII [2]; Table 7): 96%
Flow through IU (rFVIII [2]; Table 7): 0.0 IU
Activity results % total (rFVIII [2]): 96%
0.5M CaCl2 ng (rFVIII [3]; Table 5): 5530 ng
0.5M CaCl2 % total (rFVIII [3]; Table 5): 97%
2% acetic acid % total (rFVIII [3]; Table 5): 2%
2% acetic acid ng (rFVIII [3]; Table 5): 125 ng
Flow through % total (rFVIII [3]; Table 5): 0%
Total ng (rFVIII [3]; Table 5): 5680 ng
Flow through ng (rFVIII [3]; Table 5): 25 ng
ELISA results % total (rFVIII [3]): 97%
Substance: 5 (LNWKYG) [compound 5]
